Consider 1 molecule from patent publication US20250282869A1 (Amgen, published 2025).

The target in test [1] is T1, human delta-like ligand 3 (DLL3) (human, UniProt Q9NYJ7 27-618).
T1 sequence (looked up): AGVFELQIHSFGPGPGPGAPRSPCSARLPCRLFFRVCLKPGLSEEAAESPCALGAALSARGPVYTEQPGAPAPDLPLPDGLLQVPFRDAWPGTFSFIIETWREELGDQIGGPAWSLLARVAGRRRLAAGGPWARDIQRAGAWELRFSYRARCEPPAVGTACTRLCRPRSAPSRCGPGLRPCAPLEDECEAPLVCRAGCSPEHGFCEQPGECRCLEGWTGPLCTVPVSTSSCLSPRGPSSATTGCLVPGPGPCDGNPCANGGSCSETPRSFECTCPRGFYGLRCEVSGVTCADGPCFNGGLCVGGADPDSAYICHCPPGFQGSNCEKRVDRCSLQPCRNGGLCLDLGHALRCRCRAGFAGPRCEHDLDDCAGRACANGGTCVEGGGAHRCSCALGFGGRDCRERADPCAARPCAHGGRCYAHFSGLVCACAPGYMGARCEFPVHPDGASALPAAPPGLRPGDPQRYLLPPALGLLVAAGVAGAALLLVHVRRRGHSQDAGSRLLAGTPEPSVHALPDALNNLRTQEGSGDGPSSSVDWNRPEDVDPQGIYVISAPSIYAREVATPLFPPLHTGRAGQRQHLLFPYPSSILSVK
In words: cell-based or functional assay.

Test [2] addresses T2, cynomolgus monkey DLL3 (cynomolgus monkey, UniProt A0A2K5WSR1 27-584).
T2 sequence: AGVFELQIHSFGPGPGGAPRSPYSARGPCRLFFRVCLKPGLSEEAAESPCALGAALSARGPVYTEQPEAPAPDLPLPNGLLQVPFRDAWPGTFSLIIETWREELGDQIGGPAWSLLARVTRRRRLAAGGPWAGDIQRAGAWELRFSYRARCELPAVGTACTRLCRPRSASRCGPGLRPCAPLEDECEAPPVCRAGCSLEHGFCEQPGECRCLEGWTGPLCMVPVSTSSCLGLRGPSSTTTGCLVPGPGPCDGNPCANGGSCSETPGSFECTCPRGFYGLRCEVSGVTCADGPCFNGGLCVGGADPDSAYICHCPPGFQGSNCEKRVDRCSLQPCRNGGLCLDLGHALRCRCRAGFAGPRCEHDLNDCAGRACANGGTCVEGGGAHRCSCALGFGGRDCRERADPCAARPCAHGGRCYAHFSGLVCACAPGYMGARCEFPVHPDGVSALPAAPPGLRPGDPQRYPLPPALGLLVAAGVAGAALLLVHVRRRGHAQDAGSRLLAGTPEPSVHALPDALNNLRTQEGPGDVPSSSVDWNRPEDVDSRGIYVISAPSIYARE
Kind of test: cell-based or functional assay.

The target in test [3] is T3, CD3ε (aa 1-27)-chicken albumin fusion protein, human (human; chicken, UniProt P07766 22-48).
T3 construct: range 1-27; Immobilized on CM5 sensor chips; The order of the parts follows the printed name; also called Human CD3; CD3E fusion protein; not shown: chicken albumin
T3 sequence (P07766 22-48 limits assumed): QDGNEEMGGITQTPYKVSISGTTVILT
Kind of test: SPR, CD3ε (aa 1-27)-chicken albumin immobilized on CM5 chip, construct in solution. Here is the method: CD3 binding affinity was evaluated using surface plasmon resonance. A CD3E fusion protein (CD3ε (aa 1-27)-chicken albumin) was immobilized on CM5 Sensor Chips in the presence of a sodium acetate buffer (pH 4.5). The DLL3 multichain TCE proteins described above diluted in HBS-EP buffer were applied at different concentrations to determine the molecule association rates with CD3ε. HBP-EP buffer alone was then added to allow analysis of the molecule dissociation rates.

Test [4] deals with T1, human delta-like ligand 3 (DLL3). Kind of test: flow cytometry, on-cell binding to CHO cells stably expressing human DLL3, anti-Fc detection. The procedure: (§1) In particular, on-cell binding affinity for DLL3 was evaluated using Chinese Hamster Ovary (CHO) cells engineered to stably express either human or cynomolgus monkey DLL3. The engineered CHO cells were incubated with DLL3 multichain TCE proteins comprising two different DLL3-binders (“DLL3_1” or “DLL3_2”) for 4 hours at 4° C. in buffer (phosphate buffered saline with 1% fetal bovine serum). After incubation, the cells were washed in buffer, and then bound DLL3 multichain proteins were detected by incubation with a fluorescently labeled antibody directed to the fragment crystallizable (Fc) region of the proteins. Bound proteins were analyzed by flow cytometry and the EC50 values were calculated from non-linear regression analysis using GraphPad Prism.

Test [5] addresses T2, cynomolgus monkey DLL3. Kind of test: flow cytometry, on-cell binding to CHO cells stably expressing cynomolgus monkey DLL3, anti-Fc detection. Here is the method:
as §1

B1: DLL3_2 hetero IgG (SEFL2)(YTE) (bispecific antibody)
heavy 1: not shown
light 1: DIVMTQTPLSLSVTPGQPASISCKSSQSLLHSDGKTFLYWYLQKPGQPPQLLIYEVSNRFSGVPDRFSGSGSGTDFTLKISRVEAEDVGVYYCLQGIHLPFTFGPGTKVEIKRTVAAPSVFIFPPSDEQLKSGTASVVCLLNNFYPREAKVQWKVDNALQSGNSQESVTEQDSKDSTYSLESTLTLSKADYEKHKVYACEVTHQGLSSPVTKSFNRGEC
heavy 2: EVQLVESGGGLVQPGGSLKLSCAASGFTFNKYAINWVRQAPGKGLEWVARIRSKYNNYATYYADAVKDRFTISRDDSKNTVYLQMNNLKTEDTAVYYCARAENIGTSYISYWAYWGQGTLVTVSSASTKGPSVFPLAPSSKSTSGGTAALGCLVKDYFPEPVTVSWNSGALTSGVHTFPAVLQSSGLYSLESVVTVPSSSLGTQTYICNVNHKPSNTKVDKKVEPKSCDKTHTCPPCPAPELLGGPSVFLFPPKPKDTLYITREPEVTCVVVDVSHEDPEVKFNWYVDGVEVHNAKTKPCEEQYGSTYRCVSVLTVLHQDWLNGKEYKCKVSNKALPAPIEKTISKAKGQPREPQVYTLPPSRKEMTKNQVSLTCLVKGFYPSDIAVEWESNGQPENNYKTTPPVLKSDGSFFLYSKLTVDKSRWQQGNVFSCSVMHEALHNHYTQKSLSLSPGK
light 2: not shown
For B1, in test [1], the “T cell dependent cellular cytotoxicity (TDCC) EC50, CHO-huDLL3” value stood at 100 pM. The “T cell dependent cellular cytotoxicity (TDCC) EC50, CHO-cyno DLL3” value in the test with cynomolgus monkey DLL3 [2] turned out to be 22.7 pM. Further, binding in test [3] was characterised by a dissociation constant (Kd) of 7840 pM. In addition, the values for the EC50 (in test [4]; with cynomolgus monkey DLL3 [5]) were 35 pM and 40 pM, respectively.
